Assay results published in patent US12558435B2, “Transient inhibition of p53 in gene therapy” (Ospedale San Raffaele S.R.L., priority 2018, dated 2026).

Tests used:
human CD34+ cells [1] = assay: Culture (subpopulation) composition of edited CD34+ cells by flow cytometry; format: cell-based
Method: For immunophenotypic analyses (performed on FACSCanto II; BD Pharmingen), we used the antibodies listed below. Single stained and Fluorescence Minus One stained cells were used as controls. LIVE/DEAD Fixable Dead Cell Stain Kit (Thermo Fisher), 7-aminoactinomycin (Sigma Aldrich), were included in the sample preparation for flow cytometry according to the manufacturer's instructions to exclude dead cells from the analysis. Cell sorting was performed using MoFlo XDP Cell Sorter (Beckman Coulter) or FACSAria Fusion (BD Biosciences).

APOBEC3H = assay: TaqMan assay of APOBEC3H gene expression; format: cell-based, human; conditions: 24 hours post-editing; FIG. 16G
From the text: (§1) For gene expression analyses, total RNA was extracted using the RNeasy Plus Micro Kit (QIAGEN). cDNA was synthetized with SuperScript VILO IV cDNA Synthesis Kit (Invitrogen) and used for Q-PCR in a Viia7 Real-time PCR thermal cycler using TaqMan Gene Expression Assays (Applied Biosystems) mapping to CDKN1A, RPS27L, PHLDA3, APOBEC3H, and HPRT as normalizer. The relative expression of each gene was first normalized to HPRT expression and then represented as fold change relative to the mock-treated sample.

CDKN1A = assay: TaqMan assay of CDKN1A gene expression; format: cell-based, human
From the text: as §1

CDKN2A = assay: TaqMan assay of CDKN2A gene expression; format: cell-based, human; conditions: 24 hours post-editing; FIG. 16C-D
human CD34+ cells [2] = assay: Cell cycle analysis by Hoechst 33342 staining; format: cell-based; conditions: for cell cycle states (G1 to S/G2/M): bulk treated cells, 12-24 hours, FIG. 14H
Method: Cell cycle was analysed by flow cytometry (CytoFLEX LX; Beckman Coulter) at 12-24 hours post-editing by collecting 0.5-1×10^5 total HSPCs in culture. Cells were washed with PBS+2% FBS and stained by using 10 μg/ml Hoechst 33342 (Sigma-Aldrich) in PBS+2% FBS for 0.5-1 hour in final volume equal to 200 μl.

[3] = system: human CD34+ cells transplanted into NSG mice; assay: Xenotransplantation of edited human CD34+ cells in NSG mice; format: in vivo
Method: For transplantation, 3×10^5 CD34+ cells treated for editing at day 5 of culture were injected intravenously into NSG mice after sub-lethal irradiation (150-180 cGy). Sample size was determined by the total number of available treated cells. Mice were attributed to each experimental group randomly. Human CD45+ cell engraftment and the presence of gene-edited cells were monitored by serial collection of blood from the mouse tail and, at the end of the experiment (>20 weeks after transplantation), BM and spleen were harvested and analyzed.
NOD-SCID-IL2Rg^−/− (NSG) mice were purchased from The Jackson Laboratory and were maintained in specific-pathogen-free (SPF) conditions. The procedures involving animals were designed and performed with the approval of the Animal Care and Use Committee of the San Raffaele Hospital (IACUC #749) and communicated to the Ministry of Health and local authorities according to Italian law. For transplantation, 1.5-3×10^5 (for primary) or 2×10^6 (for secondary) CD34^+ treated cells at 24 hours post-editing protocol were injected intravenously into NSG mice after sub-lethal irradiation (180 cGy). Sample size was determined by the total number of available treated cells. Mice were attributed to each experimental group randomly. Human CD45^+ cell engraftment and the percentage of edited GFP^+ cells were monitored by serial collection of blood from the mouse tail over the weeks post-transplantation and at the end of the experiment (18-20 weeks post-transplantation) both spleen and bone-marrow were harvested and analysed.

human CD34+ cells [4] = assay: CFU-C / colony forming cell assay of edited CD34+ cells; format: cell-based; conditions: for erythroid and myeloid clonogenic output compared to standard protocol: FIG. 14G
CDK2 = assay: TaqMan assay of CDK2 gene expression; format: cell-based, human; conditions: 24 hours post-editing; FIG. 16A-B

B1: E4orf6/7: adenoviral protein from adenovirus serotype 5 E4 gene (SEQ ID No. 2), delivered as mRNA (protein)
chain: MTTSGVPFGMTLRPTRSRLSRRTPYSRDRLPPFETETRATILEDHPLLPECNTLTMHNAWTSPSPPVKQPQVGQQPVAQQLDSDMNLSELPGEFINITDERLARQETVWNITPKNMSVTHDMMLFKASRGERTVYSVCWEGGGRLNTRVL
modifications: delivered as mRNA; example amino acid sequence of Ad5-E4orf6/7
In the case of B1, the “CD90+ fraction in culture composition” value (human CD34+ cells [1]; 96 hours, FIG. 14E) is reported as “significant skewing”, the culture composition (human CD34+ cells [1]; FIG. 10C) is reported as “without any skew in the culture composition” and the APOBEC3H expression (APOBEC3H) is reported as “significantly down-regulated”. The “CDKN1A expression compared to the standard” value (CDKN1A; 12 hours post-editing, FIG. 16F) was “about 2 fold”, the CDKN2A expression (CDKN2A) was “significantly up-regulated” and the “cell cycle states (G1 to S/G2/M)” value (human CD34+ cells [2]) was “significant transition from G1 phase to S/G2/M phases”. For the same molecule, the “human CD45+ cell engraftment in bloodstream, between groups” value ([3]; AAVS1, T0eq=3×10^5/mouse, FIG. 17B) was “did not show any statistical significance”, the “increase of the fraction of circulating edited cells” value ([3]; AAVS1, T0eq=3×10^5/mouse, primary transplant, FIG. 17C) was 1.5 fold and the “fraction of edited cells (GFP+ or HDR+) in blood, hematopoietic organs and blood lineages” value ([3]; AAVS1 edited CB CD34+, FIG. 11) was “significant higher fraction of edited cells”. For the same molecule, the “overall level of engraftment of the human cells” value ([3]; AAVS1 edited CB CD34+, FIG. 11) was “does not affect the overall level of engraftment”, the “increase in number of myeloid and erythroid colony forming units (CFU) compared to standard” value (human CD34+ cells [4]; FIG. 7C) was 2 fold and the “erythroid and myeloid clonogenic output compared to standard protocol” value (human CD34+ cells [4]) was “not affected”. The CDK2 expression (CDK2) was “significantly up-regulated”.

B2: GSE56: p53 dominant negative peptide (SEQ ID No. 9), transiently overexpressed from electroporated mRNA (protein)
chain: MDGWCPGRDRRTEEENFRKKEEHCPELPPGSAKRALPTSTSSSPQQKKKPLDGEYFTLKIRGRERFEMFRELNEALELKDARAAEESGDSRAHSSYPKIVS
modifications: amino acid sequence of GSE56
B2 was tested, and the “relative composition of the hematopoietic populations” value (human CD34+ cells [1]; 3 days post editing, vs untreated controls, FIG. 3E) was “no change in relative composition”, the APOBEC3H expression (APOBEC3H) was “significantly down-regulated” and the “reduction of the amplitude of p21 (CDKN1A) activation compared to RNP+AAV6” value (CDKN1A; 24 hours post-editing, FIG. 16E) was “about 3 fold”. For the same molecule, the CDKN2A expression (CDKN2A) was “still remained at basal level”, the “percentage of cells in S/G2/M phases” value (human CD34+ cells [2]; 24 hours after gene editing, FIG. 12A) was “partially rescued” and the “cell cycle states (G1 to S/G2/M)” value (human CD34+ cells [2]) was “lower and not significant”. For the same molecule, the “fraction of HDR-edited cells in the PB, average” value ([3]; 22 weeks post transplantation, IL2RG edited cells, FIG. 4D) was 32%, the “engraftment in the haematopoietic organs” value ([3]; AAVS1, limited dose T0eq=1.5×10^5/mouse, FIG. 12C) was “significantly higher engraftment” and the “percentage of human cells in the peripheral blood” value ([3]; CD40LG-edited cells, FIG. 13B) was “higher percentage of human cells”. For the same molecule, the “percentage of gene correction over time” value ([3]; CD40LG-edited cells, FIG. 13C) was “more stable percentage of gene correction over time”, the “percentage of corrected cells in sorted cell types, vs standard” value ([3]; CD40LG-edited cells, endpoint, included CD34+ cells, FIG. 13E) was 3- to 6 fold and the differentiation output ([3]; IL2RG edited cells, PB lineages, FIG. 4C) was “without any skewing in the differentiation output”. The “human CD45+ engraftment” value ([3]; IL2RG edited cells, PB of NSG mice, FIG. 4B) was “increased engraftment”, the “engraftment of treated cells” value ([3]; discussion summary) was “higher engraftment of treated cells” and the “erythroid and myeloid clonogenic output compared to standard protocol” value (human CD34+ cells [4]) was “improved”. For the same molecule, the “erythroid and myeloid clonogenic output” value (human CD34+ cells [4]; sorted populations, FIG. 3F) was “increased particularly in CD90+ fraction” and the CDK2 expression (CDK2) was “remained always at basal level”.
